Biological target: human N-type calcium channel (human) (UniProt Q00975)
Experiment: cell-based or functional assay

Sequence of human N-type calcium channel (human) (Q00975 whole entry): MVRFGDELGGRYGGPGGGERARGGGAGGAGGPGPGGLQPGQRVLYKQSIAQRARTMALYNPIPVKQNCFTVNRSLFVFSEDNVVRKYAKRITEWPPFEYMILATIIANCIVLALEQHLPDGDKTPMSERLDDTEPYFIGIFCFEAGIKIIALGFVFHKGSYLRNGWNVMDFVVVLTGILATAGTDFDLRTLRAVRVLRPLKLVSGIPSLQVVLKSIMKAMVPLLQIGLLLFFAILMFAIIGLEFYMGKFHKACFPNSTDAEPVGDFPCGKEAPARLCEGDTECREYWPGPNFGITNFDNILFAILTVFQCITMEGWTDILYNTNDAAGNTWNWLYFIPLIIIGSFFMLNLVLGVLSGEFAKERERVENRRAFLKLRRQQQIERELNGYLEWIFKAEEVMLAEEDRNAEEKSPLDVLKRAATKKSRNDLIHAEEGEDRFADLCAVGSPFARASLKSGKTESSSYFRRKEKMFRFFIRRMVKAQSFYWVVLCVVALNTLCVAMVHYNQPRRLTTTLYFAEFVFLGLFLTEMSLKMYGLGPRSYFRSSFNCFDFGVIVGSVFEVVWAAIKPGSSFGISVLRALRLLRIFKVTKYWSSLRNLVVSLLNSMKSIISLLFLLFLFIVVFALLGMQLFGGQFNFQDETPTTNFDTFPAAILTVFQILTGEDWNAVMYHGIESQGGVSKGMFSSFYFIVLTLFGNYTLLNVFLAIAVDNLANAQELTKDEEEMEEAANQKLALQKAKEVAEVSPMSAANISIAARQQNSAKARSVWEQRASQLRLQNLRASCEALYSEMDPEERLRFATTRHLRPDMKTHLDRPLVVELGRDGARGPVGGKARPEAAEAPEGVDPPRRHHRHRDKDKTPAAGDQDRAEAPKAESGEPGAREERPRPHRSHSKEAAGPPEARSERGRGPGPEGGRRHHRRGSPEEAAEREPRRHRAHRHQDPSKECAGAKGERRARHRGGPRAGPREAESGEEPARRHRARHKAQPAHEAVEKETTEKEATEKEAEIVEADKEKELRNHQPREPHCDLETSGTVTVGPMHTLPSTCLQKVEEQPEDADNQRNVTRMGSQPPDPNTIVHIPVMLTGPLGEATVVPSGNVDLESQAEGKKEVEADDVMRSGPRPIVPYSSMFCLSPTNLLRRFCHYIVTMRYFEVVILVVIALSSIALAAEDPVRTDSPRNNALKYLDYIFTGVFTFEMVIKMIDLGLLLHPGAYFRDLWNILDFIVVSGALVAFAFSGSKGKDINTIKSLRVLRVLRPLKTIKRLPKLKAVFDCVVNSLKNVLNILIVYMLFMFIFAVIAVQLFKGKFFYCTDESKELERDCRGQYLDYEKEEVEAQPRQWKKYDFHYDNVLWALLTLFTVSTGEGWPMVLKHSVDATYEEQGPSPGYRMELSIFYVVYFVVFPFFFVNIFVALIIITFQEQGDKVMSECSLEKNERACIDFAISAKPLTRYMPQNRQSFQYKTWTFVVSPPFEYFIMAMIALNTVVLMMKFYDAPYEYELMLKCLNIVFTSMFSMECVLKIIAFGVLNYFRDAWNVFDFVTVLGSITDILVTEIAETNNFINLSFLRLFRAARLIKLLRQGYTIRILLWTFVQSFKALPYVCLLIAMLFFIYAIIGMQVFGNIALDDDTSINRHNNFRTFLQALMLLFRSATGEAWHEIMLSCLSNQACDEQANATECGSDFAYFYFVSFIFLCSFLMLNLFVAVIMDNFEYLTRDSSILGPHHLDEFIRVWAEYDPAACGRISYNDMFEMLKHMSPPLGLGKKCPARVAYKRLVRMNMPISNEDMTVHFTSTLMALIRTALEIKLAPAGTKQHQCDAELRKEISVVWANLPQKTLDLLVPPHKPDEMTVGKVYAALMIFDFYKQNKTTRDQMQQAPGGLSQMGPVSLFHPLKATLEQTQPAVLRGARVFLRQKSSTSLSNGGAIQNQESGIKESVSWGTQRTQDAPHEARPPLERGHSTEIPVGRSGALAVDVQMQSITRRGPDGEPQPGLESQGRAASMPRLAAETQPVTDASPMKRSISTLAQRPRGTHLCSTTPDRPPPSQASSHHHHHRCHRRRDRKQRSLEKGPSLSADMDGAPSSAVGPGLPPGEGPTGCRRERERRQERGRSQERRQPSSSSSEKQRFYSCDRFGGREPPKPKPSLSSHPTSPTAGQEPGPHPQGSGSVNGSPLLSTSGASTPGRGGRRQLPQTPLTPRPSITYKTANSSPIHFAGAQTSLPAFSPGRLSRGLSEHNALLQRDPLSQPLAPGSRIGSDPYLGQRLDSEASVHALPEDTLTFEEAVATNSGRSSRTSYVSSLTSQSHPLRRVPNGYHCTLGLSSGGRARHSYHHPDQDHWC

Substance: ω-conotoxin FVIA (peptide)
- IC50 of dose-inhibition curve, whole-cell patch clamp of N-type Ca2+ current: 11.5 nM
- recovery after washout (FIG. 5): 75%

Substance: ω-conotoxin MVIIA (peptide)
- IC50 of dose-inhibition curve, whole-cell patch clamp of N-type Ca2+ current: 7.96 nM
- recovery after washout (FIG. 5): 35%
